The target in assay [1] is T1, human properdin (human, UniProt P27918 28-469). In words: ELISA. On the technique in general: ELISA stands for enzyme-linked immunosorbent assay.
The target in assay [2] is T1, human properdin. Briefly: ELISA. This is another data set of the same source.
The target in assay [3] is T1, human properdin. Briefly: ELISA, inhibition of properdin binding to C3b.
Assay [4] concerns the target T1, human properdin. Briefly: ELISA. This is another data set of the same source.

Residue numbers refer to the chain shown, from its start. Like-named read-outs stand apart in the source and are kept apart here.

This is an account of results in patent publication US20140186348A1 (published 2014).

What is called Kd is the concentration at which binding is half-saturated. Read a low Kd as higher affinity. Usually IC50 stands for the point on the concentration scale where inhibition reaches its midpoint.

T1 sequence (P27918 28-469): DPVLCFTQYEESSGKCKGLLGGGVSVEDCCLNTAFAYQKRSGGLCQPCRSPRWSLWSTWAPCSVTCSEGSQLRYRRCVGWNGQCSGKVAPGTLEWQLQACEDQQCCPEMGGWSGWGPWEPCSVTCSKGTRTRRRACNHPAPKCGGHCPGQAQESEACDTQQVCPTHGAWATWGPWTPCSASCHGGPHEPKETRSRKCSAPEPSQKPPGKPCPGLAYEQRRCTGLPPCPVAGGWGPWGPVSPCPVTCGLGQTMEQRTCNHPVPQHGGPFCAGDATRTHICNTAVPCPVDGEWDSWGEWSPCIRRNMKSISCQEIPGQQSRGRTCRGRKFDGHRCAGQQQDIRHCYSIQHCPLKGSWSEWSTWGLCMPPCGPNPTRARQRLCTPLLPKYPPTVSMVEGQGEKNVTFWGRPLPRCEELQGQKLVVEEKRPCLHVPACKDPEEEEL

B1: NM9401-IgG (murine anti-properdin monoclonal antibody, IgG1) (antibody, V domains shown)
VH: QVQLQQSAPELARPGASVKMSCTASGYIFTNYPIHWVKQRPGQGLEWIGFIDPGGGYDEPDERFRDRATLTADKSSSTAYMQLSSLTSEDSAIYYCARRGGGYYLDYWGQGTTLTVSS
VL: DIQMTQTTSSLSASLGDRVTISCRASQDISFFLNWYQQKPDGTVKLLIYYTSRYHSGVPSRFSGSGSGTDFSLTINNLEQEDFATYFCQHGNTLPWTFGGGTKLEIKR
B1: the dissociation constant Kd was 0.101 nM with human properdin [1] and 0.256 nM with human properdin [2]. This molecule showed an IC50 with human properdin [3] of 10.7 nM.

B2: NM9401-Fab (Fab, V domains shown)
VH: B1 VH
VL: B1 VL
In the assay with human properdin [1], B2 registered a Kd of 0.103 nM.

B3: BAP010hum02 (humanized anti-properdin monoclonal antibody) (antibody, V domains shown)
VH: QVQLQESGPGLVKPSQTLSLTCTVSGYIFTNYPIHWVRQAPGKGLEWVSFIDPGGGYDEPDERFRDRVTISVDTSKNQFSLKLSSVTAADTAVYYCARRGGGYYLDYWGQG
VL: EIVLTQSPATLSLSPGERATLSCRASQDISFFLNWFQQRPGQSPRRLIYYTSRYHSGIPPRFSGSGYGTDFTLTINNIESEDAAYYFCQHGNTLPWTFGQG
In turn, B3 returned a Kd with human properdin [4] of 0.0138 nM.

B4: NM9401-F(ab′)2 (other)
VH: QVQLQQSAPELARPGASVKMSCTASGYIFTNYPIHWVKQRPGQGLEWIGFIDPGGGYDEPDERFRDRATLTADKSSSTAYMQLSSLTSEDSAIYYCARRGGGYYLDYWGQGTTLTVSSAKTT
VL: DIQMTQTTSSLSASLGDRVTISCRASQDISFFLNWYQQKPDGTVKLLIYYTSRYHSGVPSRFSGSGSGTDFSLTINNLEQEDFATYFCQHGNTLPWTFGGGTKLEIKRADAAPTVSIFPPSSEQLTSGGASVVCFLNN
B4 showed a Kd with human properdin [1] of 0.118 nM.

B5: BAP010hum10 (humanized anti-properdin monoclonal antibody) (antibody, V domains shown)
VH: QVQLQESGPGLVKPSQTLSLTCTVSGYIFTNYPIHWVRQATGQGLEWMGFIDPGGGYDEPDERFRDRVTITADKSTSTAYMELSSLRSEDTAVYYCARRGGGYYLDYWGQG
VL: DIQMTQSPSSLSASVGDRVTITCRASQDISFFLNWYQQKPGKAPKLLIYYTSRYHSGIPPRFSGSGYGTEFTFTISSLEAEDAATYYCQHGNTLPWTFGQG
Take B5: the Kd with human properdin [4] is 0.0236 nM.

B6: BAP010hum03 (humanized anti-properdin monoclonal antibody) (antibody, V domains shown)
VH: EVQLVQSGAEVKKPGESLRISCKGSGYIFTNYPIHWIRQSPSRGLEWLGFIDPGGGYDEPDERFRDRVTISADKSISTAYLQWSSLKASDTAMYYCARRGGGYYLDYWGQG
VL: B5 VL with I58V, P60S, Y67S, F73L, E79Q, A80S, A83F, T85V
B6: the Kd in the assay with human properdin [4] was found to be 0.0207 nM.
